Data on six molecules can be found in US9107936B2, “Antagonists of GRASP55 for use as a medicament” (Institut National de la Sante et de la Recherche Medicale …, priority 2012, dated 2015).

Where no end group is shown, it is not given here.

In assay [1] the target is T1, GST-PDZI′+II′ (Grasp55 residues 1 to 208) (Mus musculus, UniProt Q99JX3).
T1 construct: and 1 to 208 corresponding respectively to the PDZI′, PDZII′ and PDZI′+II′ constructs; made in house; host or cells: bacteria Rosetta
Put plainly: HTRF measurement of interaction of biotinylated C-terminal peptides with GST-PDZI′+II′. Format: binding, murine. Conditions: for interaction of biotinylated peptide with PDZI′+II′ GST construct: peptide 1.9*10^−7M. Here is the method:
(§1) To refine and extend the results obtained by yeast two hybrid, an Homogenous Time Resolved Fluorescence (HTRF) assay have been set-up to measure interactions of various peptides with recombinant GST proteins corresponding to different regions of Grasp55.
(§2) Briefly, the technique consisted in incubating 18 h at 4° C. the biotinylated-Cterminal peptides (SEQ ID NO: 26 to 34) at the concentration of 1.9*10^−7M with the GST-fusion protein, the terbium-coupled anti-GST antibody (8*10^−10M each) and the d2-coupled streptavidin (4*10^−8M) (both from Cisbio), in 0.1 mL of Hepes 0.05M, NaCl 0.15M BSA 0.1% pH 7.2. In some experiments, competing peptide or chemicals were added to the incubation mix at the indicated concentration. After incubation, microtiter plates (Costar #3693) were red using PolarScan Omega (BMG Labtech) equipped for HTRF measurements. Upon excitation at 320 nm, a 620 nm fluorescence emission is produced by the donor terbium that in turn excites a 665 nm light emission by a Streptavidin-d2 (acceptor) bound to the Biotinylated interacting Peptide if the latter is interacting with the donor. The […] R ratio is obtained and a Delta F is computed as: [(Rsample−RNSB)/RNSB]*100 where RNSB is the Non Specific Background signal determined in incubates where the GST-fusion protein was omitted.
(§3) Having shown that HTRF measurement of interaction is a reliable technology to identify inhibitors of interaction. A screen of a chemical compound library provided by MRCt has been initiated. The screening consisted in the same HTRF technique used in Example 7 except that compounds from the library were added in the incubation mix at the final concentration of 6.6×10^−5M. […] Since such a result could be either due to a specific inhibition of the JAM-C peptide interaction to the recombinant Grasp55 PDZ domains or to a non-specific inhibition of the FRET signal between donor and acceptor in HTRF technology, the twenty selected compounds have been further tested. Indeed, compounds could potentially interfere with the binding of the anti-GST antibody terbium-labeled to the GST of the fusion protein, the binding of Streptavidin-d2 to the biotinylated peptide or promote strong interference at 320, […] or 665 nm. Thus, the putative hits obtained were screened for non-specific inhibition. To this end, the GST-PDZI′+II′ recombinant protein was biotinylated using Sulfo-NHS Biotin according to manufacturer instructions (Pierce). This allows designing an HTRF assay in which the d2-coupled streptavidin (acceptor) and the terbium-coupled anti-GST antibody are directly bound to recombinant GST-PDZI′+II′ protein and produce DeltaF signal independently of the biotinylated peptide. The twenty selected compounds were thus tested in this assay to eliminate those giving false inhibition of the HTRF signals while inhibitors of Biotinylated peptide interaction with GST-PDZI′+II′ should not interfere in this assay.
(In general: Time-resolved FRET reads energy transfer from a long-lived donor to a nearby acceptor.)

Assay [2] has as its target T2, GST-PDZI′ (Grasp55 residues 1 to 107) (Mus musculus, UniProt Q99JX3).
T2 construct: GST fusion proteins encompassing residues 1 to 107; made in house; host or cells: bacteria Rosetta
Put plainly: HTRF measurement of interaction of biotinylated C-terminal peptides with GST-PDZI′. Format: binding, murine. Conditions: for interaction of biotinylated peptide with PDZI′ GST construct: peptide 1.9*10^−7M; for which Grasp55 construct's interaction with JAM-C is inhibited: NINDS library screening, PDZI′ and PDZI′+II′ recombinant GST proteins. On the procedure: as §1, §2, §3

Where [3] appears, read: competition with unlabelled JAM-C peptide.

Turning to “JAM-A: biotinylated C-terminal peptide of JAM-A (SQPSTRSEGEFKQTSSFLV; also: biotinylated)”, in assay [1] (setting [3]), the “AppAff for GST-PDZI′+II′ compared with GST-PDZI′” value is recorded as “higher AppAff”. Moreover, the “apparent affinity (AppAff) compared with JAM-C” value in assay [1] (competition with unlabelled JAM-C peptide, GST-PDZI′ and GST-PDZI′+II′) is reported as “AppAff of JAM-C is equal to AppAff of JAM-A”. For the same molecule, the “interaction of biotinylated peptide with PDZI′+II′ GST construct” value (“interaction … with PDZI′+II′ GST construct” below) in assay [1] is listed as “confirmed”. For the same molecule, the “interaction of biotinylated peptide with PDZI′ GST construct” value in assay [2] is “confirmed”.

As to `O=c1oc2c(O)c(O)cc3c(=O)oc4c(O)c(O)cc1c4c23` [Ellagic acid, 2,3,7,8-Tetrahydroxy-chromeno[5,4,3-cde]chromene-5,10-dione], the “which Grasp55 construct's interaction with JAM-C is inhibited” value in assay [2] was “inhibit interaction with PDZI′ and PDZI′+II′”.

Consider “ΔPDZbm: control biotynilated JAM-C peptide lacking the three terminal amino-acids (SEQ ID NO: 31) (NYIRTSEEGDFRHKSS; also: biotinylated)”, for which, in assay [1], the “interaction … with PDZI′+II′ GST construct” value is “no signal over the background”.

Regarding `N.N.O=C([O-])C1(C(=O)[O-])CCC1.[Pt+2]` [Carboplatin, cis-Diammine(1,1-cyclobutanedicarboxylato)platinum(II)], the “which Grasp55 construct's interaction with JAM-C is inhibited” value in assay [2] was “preferentially inhibit the interaction of JAM-C with PDZI′”.

Turning to `CCN(CC)C(=S)SSC(=S)N(CC)CC` [Disulfiram, 1,1′,1″,1′″-[disulfanediylbis(carbonothioylnitrilo)]tetraethane], in assay [2], the “which Grasp55 construct's interaction with JAM-C is inhibited” value was “only with PDZI′+II′”.

With “JAM-C: biotinylated C-terminal peptide of JAM-C (NYIRTSEEGDFRHKSSFVI; also: biotin)”, the “AppAff for GST-PDZI′+II′ compared with GST-PDZI′” value in assay [1] (setting [3]) is “higher AppAff”. In assay [1], the “interaction … with PDZI′+II′ GST construct” value was “confirmed”. For the same molecule, the “interaction of biotinylated peptide with PDZI′ GST construct” value in assay [2] is “confirmed”.
